Assay results: publication PMC7076015, “An epilepsy-associated mutation in the nuclear import receptor KPNA7 reduces nuclear localization signal binding” (Scientific Reports, 2020)

Tests used:
Settings in all cases: both partners purified
MBP-KPNA7 (wild type) = target: T1, MBP-KPNA7 (wild type) (human, UniProt A9QM74 1-516); assay: pull-down; bead binding assay with a range of GST-GFP-hnRNP R-bNLS concentrations (10 nM to 2.7 μM) on KPNA7 proteins; binding curve, apparent KD
T1 construct: also called WT KPNA7; MBP-KPNA7 WT; source: E. coli BL21, purified (amylose resin, eluted with maltose, dialyzed)

MBP-KPNA7(E344Q) [1] = target: T2, MBP-KPNA7(E344Q) (human, UniProt A9QM74 1-516, E344Q); assay: as above
T2 construct: Substitution found in epilepsy patients (occurs in nature); also called KPNA7 mutant E344Q; E344Q KPNA7; source: E. coli BL21, purified (amylose resin, eluted with maltose, dialyzed)

MBP-KPNA7(P339A) = target: T3, MBP-KPNA7(P339A) (human, UniProt A9QM74 1-516, P339A); assay: pull-down; MBP fusion proteins on amylose resin (1 μg/μl), GST-GFP-NLS constructs in solution (250 nM or indicated concentrations) with Imp-β (250 nM); 2 hrs at 4 °C, 20 mM Tris pH 8, 200 mM NaCl, 1 mM EDTA, 1 mM DTT, 0.05% Triton X-100; western blot
T3 construct: Substitution found in epilepsy patients (occurs in nature); also called KPNA7 mutant P339A; P339A KPNA7; source: E. coli BL21, purified (amylose resin, eluted with maltose, dialyzed)

MBP-KPNA7(E344Q) [2] = target: T2, MBP-KPNA7(E344Q); assay: as above

T2 sequence (A9QM74 whole entry E344Q): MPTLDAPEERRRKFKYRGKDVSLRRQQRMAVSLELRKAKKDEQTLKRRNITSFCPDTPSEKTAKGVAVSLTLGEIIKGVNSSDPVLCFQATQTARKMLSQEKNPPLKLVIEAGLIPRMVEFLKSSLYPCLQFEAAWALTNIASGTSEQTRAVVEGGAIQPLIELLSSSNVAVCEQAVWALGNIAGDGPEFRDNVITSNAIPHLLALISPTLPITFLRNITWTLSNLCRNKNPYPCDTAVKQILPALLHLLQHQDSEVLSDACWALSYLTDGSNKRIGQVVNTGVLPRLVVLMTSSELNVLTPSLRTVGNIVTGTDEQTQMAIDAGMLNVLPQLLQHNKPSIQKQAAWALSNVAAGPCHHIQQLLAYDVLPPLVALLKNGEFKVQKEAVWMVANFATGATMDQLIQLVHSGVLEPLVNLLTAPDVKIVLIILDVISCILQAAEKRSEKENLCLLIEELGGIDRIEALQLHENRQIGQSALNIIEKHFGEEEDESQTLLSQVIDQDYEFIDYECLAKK
T1 sequence (A9QM74 whole entry): as the sequence (A9QM74 whole entry E344Q) above, with Q344E counted along it
T3 sequence (A9QM74 whole entry P339A, the tested form may be a part): as the sequence (A9QM74 whole entry E344Q) above, with P339A, Q344E counted along it

B1: GST-GFP-hnRNP R bipartite NLS (domain or fragment, UniProt O43390 565-589, looked up)
chain: RGGNVGGKRKADGYNQPDSKRRQTN
notes: hnRNP R, bipartite NLS (bNLS, a.a. 565-589), cloned into pGEX-4T1-GFP; The limits are those that the text gives for the NLS; also called hnRNP R bNLS; hnRNP R-bNLS; source: E. coli BL21, purified (glutathione resin)
Kd (MBP-KPNA7 (wild type)): ~123 nM | Kd (MBP-KPNA7(E344Q) [1]): ~223 nM | binding result (MBP-KPNA7(P339A)): binds | fold less binding than WT KPNA7 (MBP-KPNA7(E344Q) [2]): ~10 fold
